Publication PMC9095892 (The Journal of Biological Chemistry, 2022)

B1: Streptomyces griseus StrM (TDP-sugar 3'',5''-epimerase, RmlC ortholog) (enzyme, UniProt P29783 1-200, looked up)
chain: MRPLSVQGAWLSETRAFADDRGEFQELYSARSLRGALGYDPGVAQVNRSVSRRGVLRGVHFAQLPPSQAKYVTCLSGAVLDVVVDIRTGSPTYRAWEAVRLDDPHRSLYVEAGLGHSFMALTDDAVVVYLTSQGYAAGREHGVHPLDPDLGIAWPDGIEPVLSEKDRQAPGIAEMERRGLLPDYEECLAFRRSLCERGTG
notes: also called SgStrM

Tests used:
[1] = tested on: Cc1cn([C@H]2C[C@H](O)[C@@H](COP(=O)(O)OP(=O)(O)O[C@H]3O[C@H](C)C(=O)[C@H](O)[C@H]3O)O2)c(=O)[nH]c1=O; assay: purified protein; conditions: pH 7.5
crystal structure = target: the molecule itself; assay: crystal structure

Molecule	Km [1]	kcat/Km [1]	binding result (crystal structure)
RmlC (EcRmlC; E. coli RfbC) (Escherichia coli K-12)	830 ± 40 µM	6600 ± 200 M⁻¹ s⁻¹	–
StrM (SgStrM) (Streptomyces griseus)	600 ± 40 µM	9100 ± 400 M⁻¹ s⁻¹	–
EvaD (AoEvaD) (Amycolatopsis orientalis)	632 ± 98 µM	630 ± 70 M⁻¹ s⁻¹	–
B1	–	–	binds
